± gives the standard deviation of the averaged measurements.
B1: library; a variant is named by its letters at N, in order (parent)
chain: GCUGUCACCGGUGCUUGGUACGUUAUAUUCAGCCGGUCUGAUGAGUCUNNNNNNAGACGAAACAGC

Legend:
[1] = variants of: B1; assay: FACS-Seq fitted mean relative fluorescence mCherry/BFP without ligand (log10 relative fluorescence); HEK293T overexpressing SLC46A1; higher = higher reporter protein expression; conditions: without (6R,S)-folinic acid; ligand present: no
In short: (§1)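 Lentivirally transduced HEK293T libraries carried an mCherry reporter with the ribozyme switch and an EF1α-BFP marker. Transduced cells were enriched, then incubated with or without ligand for 48 h and sorted into 6 bins by mCherry/BFP. Genomic DNA from each bin was PCR-amplified, barcoded and sequenced on MiSeq. Fluorescence was the fitted normal mean of log10(mCherry/BFP) bin counts, scaled to five spiked-in control ribozymes.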

[2] = variants of: B1; assay: normalized RNA/DNA level without ligand (relative to sTRSVctl = 100) (log10 (% of sTRSVctl)); HEK293T overexpressing SLC46A1; higher = less ribozyme self-cleavage, higher mRNA level; conditions: without (6R,S)-folinic acid; ligand present: no
In short: (§2)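 Only sequences with at least 100 DNA reads were analyzed, from HEK293T cells transfected with 4 µg per 6-well well of ribozyme switch library plasmids 72 h before RNA extraction with EDTA. Any ligand was added 1 h before transfection. RNA level was defined as RNA over DNA reads, normalized to a spiked-in non-cleaving sequence or to the top sequences, then scaled and log-transformed. The top set was 25 sequences, and the scaling was ×100 followed by log10.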

[3] = variants of: B1; assay: FACS-Seq fitted mean relative fluorescence mCherry/BFP with ligand (log10 relative fluorescence); HEK293T overexpressing SLC46A1; ligand concentration (+) FACS-Seq: 6 mM; higher = higher reporter protein expression; conditions: with (6R,S)-folinic acid; ligand present: yes
In short: as §1

[4] = variants of: B1; assay: normalized RNA/DNA level with ligand (relative to sTRSVctl = 100) (log10 (% of sTRSVctl)); HEK293T overexpressing SLC46A1; ligand concentration (+) RNA-Seq: 6 mM; higher = less ribozyme self-cleavage, higher mRNA level; conditions: with (6R,S)-folinic acid; ligand present: yes
In short: as §2

Variant	FACS-Seq fitted mean (log10) [1]	normalized RNA/DNA level without ligand (log10) [2]	FACS-Seq fitted mean (log10) [3]	normalized RNA/DNA level with ligand (log10) [4]
ACAGCG	0.271 ± 0.031	1.82 ± 0.023	0.411 ± 0.034	2.01 ± 0.031
ACAGCA	0.531 ± 0.039	2.015 ± 0.012	0.555 ± 0.17	2.04 ± 0.037
GAUGUU	0.317 ± 0.026	1.976 ± 0.0069	0.463 ± 0.066	2.01 ± 0.031
GAUGUG	0.409 ± 0.09	1.889 ± 0.0086	0.576 ± 0.27	2.02 ± 0.021
ACAACA	0.197 ± 0.026	2.032 ± 0.003	0.27 ± 0.24	2.03 ± 0.04
GCAGAU	0.24 ± 0.072	1.958 ± 0.011	0.319 ± 0.16	2.02 ± 0.035
UCAACU	0.46 ± 0.092	2.03 ± 0.0056	0.559 ± 0.13	2.04 ± 0.027
UCAACC	0.654 ± 0.28	2.04 ± 0.023	0.606 ± 0.39	1.978 ± 0.017
UAUUAG	-0.162 ± 0.24	1.781 ± 0.0025	0.0465 ± 0.094	1.98 ± 0.054
UAUUAC	0.106 ± 0.011	1.984 ± 0.0099	0.38 ± 0.24	2 ± 0.035
UAUUAA	-0.696 ± 0.074	1.946 ± 0.0091	-0.811 ± 0.25	1.98 ± 0.037
UAUUUG	0.00681 ± 0.018	1.82 ± 0.02	0.373 ± 0.0088	1.976 ± 0.017
UAUUUC	0.248 ± 0.026	2.029 ± 0.0031	0.208 ± 0.2	2.01 ± 0.054
UAUUUU	0.372 ± 0.078	2.006 ± 0.0046	0.24 ± 0.13	2.02 ± 0.058
UCAAAC	0.446 ± 0.11	2.01 ± 0.0051	0.621 ± 0.079	2.01 ± 0.056
UCAAAA	0.0137 ± 0.17	1.944 ± 0.012	0.0601 ± 0.04	1.99 ± 0.046
GAUUAG	-0.00141 ± 0.0098	1.95 ± 0.0067	-0.175 ± 0.038	2.005 ± 0.013
GAUUAU	0.371 ± 0.018	1.97 ± 0.013	0.305 ± 0.0094	1.992 ± 0.012
GAUUAA	0.2664 ± 0.0013	1.977 ± 0.0031	0.453 ± 0.16	2 ± 0.028
ACACGA	0.206 ± 0.039	1.9971 ± 0.00061	0.242 ± 0.26	2.02 ± 0.059
CCACUU	0.0563 ± 0.03	1.97 ± 0.021	-0.0467 ± 0.18	1.972 ± 0.007
UAUUGG	-0.0117 ± 0.013	1.59 ± 0.037	0.338 ± 0.024	1.91 ± 0.034
UAUUGA	0.265 ± 0.09	1.91 ± 0.025	0.57 ± 0.12	1.985 ± 0.003
ACACCG	0.142 ± 0.015	1.99 ± 0.022	0.198 ± 0.14	2.01 ± 0.022

Variant	FACS-Seq fitted mean (log10) [1]	normalized RNA/DNA level without ligand (log10) [2]	FACS-Seq fitted mean (log10) [3]	normalized RNA/DNA level with ligand (log10) [4]
ACACCA	0.658 ± 0.22	2.035 ± 0.0068	0.462 ± 0.1	2.03 ± 0.022
UCACCG	0.426 ± 0.13	1.971 ± 0.006	0.151 ± 0.15	2.01 ± 0.03
GAUUGA	0.422 ± 0.12	1.999 ± 0.019	0.519 ± 0.3	2.02 ± 0.048
GAUUGU	0.143 ± 0.011	1.995 ± 0.0038	0.365 ± 0.11	2.024 ± 0.0059
GCAAAA	0.327 ± 0.023	1.989 ± 0.0033	0.174 ± 0.032	2 ± 0.051
CCACGU	0.714 ± 0.093	2.053 ± 0.0035	0.4025 ± 0.00094	2.0397 ± 0.0012
GAUUUA	0.4 ± 0.091	2.024 ± 0.019	0.664 ± 0.15	2.03 ± 0.021
GCACAA	-0.45 ± 0.18	1.9848 ± 8e-05	-1.15 ± 0.17	2 ± 0.039
GCACAC	-0.179 ± 0.1	1.966 ± 0.0048	-0.0397 ± 0.2	2 ± 0.037
AAUGUC	-0.0892 ± 0.053	2.075 ± 0.01	-0.24 ± 0.095	2.037 ± 0.0021
ACAGAC	0.355 ± 0.071	2.0094 ± 0.0017	0.356 ± 0.3	2.021 ± 0.0097
ACAGAG	0.511 ± 0.086	1.6069 ± 0.00022	0.928 ± 0.2	1.94 ± 0.048
ACAGAA	0.191 ± 0.02	1.947 ± 0.0015	0.0345 ± 0.24	2 ± 0.024
ACAGAU	-0.89 ± 0.044	1.95 ± 0.0032	-0.82 ± 0.13	2.03 ± 0.04
UCAGAU	0.523 ± 0.0091	1.95 ± 0.0075	0.201 ± 0.13	2.013 ± 0.011
CCAGAU	0.213 ± 0.0078	2.003 ± 0.0083	0.000255 ± 0.023	2.01 ± 0.027
ACAAGG	0.526 ± 0.062	1.913 ± 0.014	0.524 ± 0.13	2.016 ± 0.014
AAUUGG	0.112 ± 0.046	1.93 ± 0.024	0.122 ± 0.064	2 ± 0.022
AAUUGA	0.309 ± 0.021	1.966 ± 0.0098	0.358 ± 0.11	2 ± 0.0091
AAUUGU	0.0241 ± 0.064	1.949 ± 0.019	0.334 ± 0.097	1.98 ± 0.032
CCAAAA	0.502 ± 0.074	1.971 ± 0.0043	0.496 ± 0.19	1.96 ± 0.022
UCAGCG	0.14 ± 0.042	1.912 ± 0.0054	0.669 ± 0.098	2.03 ± 0.023
GCAGCG	0.175 ± 0.0041	1.977 ± 0.016	0.0708 ± 0.18	2.03 ± 0.022
CCAAGU	0.0806 ± 0.0022	2.038 ± 0.0087	0.036 ± 0.024	2.04 ± 0.047

Variant	FACS-Seq fitted mean (log10) [1]	normalized RNA/DNA level without ligand (log10) [2]	FACS-Seq fitted mean (log10) [3]	normalized RNA/DNA level with ligand (log10) [4]
AAUUUU	0.217 ± 0.14	2.04 ± 0.029	0.309 ± 0.3	2.01 ± 0.025
AAUUUG	0.443 ± 0.039	1.952 ± 0.016	0.374 ± 0.038	2.02 ± 0.024
ACACAU	0.23 ± 0.019	1.965 ± 0.0028	0.348 ± 0.25	2 ± 0.043
GCAACU	0.431 ± 0.019	2.0623 ± 0.00038	0.667 ± 0.22	2.06 ± 0.029
GCAAGG	0.437 ± 0.041	1.957 ± 0.007	0.376 ± 0.13	2.04 ± 0.049
GCAAGA	0.477 ± 0.0057	2.022 ± 0.0049	0.457 ± 0.12	2.04 ± 0.024
CAUUAU	0.4935 ± 0.0016	1.976 ± 0.011	0.36 ± 0.13	1.98 ± 0.056
CAUUAC	0.716 ± 0.11	1.984 ± 0.003	0.484 ± 0.06	1.98 ± 0.036
ACAAUG	0.173 ± 0.021	1.96 ± 0.02	0.372 ± 0.11	2.03 ± 0.033
ACAAUA	0.486 ± 0.011	1.981 ± 0.0063	0.509 ± 0.16	2.004 ± 0.02
ACAAAG	0.424 ± 0.017	1.929 ± 0.019	0.459 ± 0.23	2.01 ± 0.042
ACAAAC	0.439 ± 0.018	2.03 ± 0.025	0.419 ± 0.038	2.02 ± 0.043
UCAAGA	0.185 ± 0.046	1.9951 ± 0.0012	0.305 ± 0.13	2.028 ± 0.014
UCAAGC	0.599 ± 0.019	2.071 ± 0.0039	0.553 ± 0.17	2.05 ± 0.04
CCAGCC	0.159 ± 0.022	2.05 ± 0.025	-0.0156 ± 0.022	2.03 ± 0.039
CAUUUU	0.383 ± 0.084	1.982 ± 0.015	0.284 ± 0.047	1.99 ± 0.043
CAUUUG	0.428 ± 0.042	2.05 ± 0.0064	0.431 ± 0.069	2.06 ± 0.025
CAUGUU	-0.0794 ± 0.016	2.027 ± 0.017	-0.27 ± 0.064	2.04 ± 0.029
CAUGUG	0.241 ± 0.086	2 ± 0.025	0.351 ± 0.27	1.992 ± 0.011
CCACAA	0.496 ± 0.0082	1.969 ± 0.0044	0.422 ± 0.22	1.96 ± 0.016
UCAAUG	0.183 ± 0.076	1.814 ± 0.0085	0.195 ± 0.15	2 ± 0.037
GAUUCA	0.437 ± 0.14	1.985 ± 0.0095	0.333 ± 0.013	2.01 ± 0.025
GAUUCU	0.0461 ± 0.007	2.015 ± 0.0091	-0.0821 ± 0.066	2.04 ± 0.042
UAUGUG	0.257 ± 0.25	1.65 ± 0.024	0.638 ± 0.018	1.944 ± 0.019

Reference: the supplement of paper PMC6757056
